Laboratory results as given in US20220403001A1, “PDE5 DERIVED REGULATORY CONSTRUCTS AND METHODS OF USE IN IMMUNOTHERAPY” (Obsidian Therapeutics, Inc., priority 2018, published 2022).

Legend:
hPDE5 mutants [1] = assay: GFP FACS analysis of hPDE5 mutant library clones in NIH3T3 cell pools; settings: experiment 1
Protocol: (§1) These constructs were packaged into lentivirus, transduced into NIH3T3 cells and select stable cell pools were derived as described below. […] Lentiviral stocks were used for transduction of NIH3T3 cells and subsequent cell pool selection. The day before transduction, NIH3T3 cells (1.8×10^6) were seeded in a T-25 flask and allowed to reach 60-70% confluency (˜1 day). The growth medium in the T-25 flask was then replaced with 1 mL virus (quickly thawed in a 37° C. water bath) and 5 μg/mL polybrene. […] Transduction medium was removed the following day and replaced with 5 mL fresh medium. At 48 hr after transduction, the medium was replaced with media containing 1 μg/mL puromycin. This puromycin medium was replaced every 3-4 days until cell pools were established (˜2 weeks).
(§2) The mean fluorescence intensity (MFI) of GFP at 100 μM concentration treatment was set as 100% hPDE5 stabilization effect (HPE), while DMSO treatment was set as 0% effect (ZPE) of hPDE5 stabilization. The effect of the compound on hPDE5 stabilization was calculated based on the following formula: % PDE5 stabilization effect=(MFI-ZPE)/(HPE-ZPE)×100.
(§3) Plots of the % effect versus concentration were generated with Graphpad Prism 5 and EC50 values were calculated using a four-parameter nonlinear regression model.
(§4) Select PDE5 clones from both experiment 1 and experiment 2 were directly compared. […] The stabilization ratio was calculated as the fold change in GFP intensity in ligand treated samples compared to treatment with DMSO (i.e. in the absence of ligand) with the same construct.

hPDE5 mutants [2] = molecular target: hPDE5 mutants (Homo sapiens, UniProt O76074); assay: as above; settings: for MFI 10 μM VDF / MFI DMSO: GFP, NIH3T3 cell pools; for MFI 10 μM VDF: 10 μM vardenafil 24 hr; for MFI DMSO: no ligand (DMSO); for Fluorescence intensity Sildenafil / Fluorescence intensity Tadalafil / Fluorescence intensity Vardenafil / Fluorescence intensity DMSO: median GFP fluorescence by FACS, direct comparison of clones; for Fluorescence intensity Sildenafil: 10 μM Sildenafil; for Fluorescence intensity Tadalafil: 10 μM Tadalafil; for Fluorescence intensity Vardenafil: 10 μM Vardenafil; for Fluorescence intensity DMSO: vehicle DMSO (no ligand)
Protocol: as §1, §2, §3, §4

Substance	GFP FACS analysis (MFI) (hPDE5 mutants [1]; DMSO (no ligand), SDF series)	GFP FACS analysis (MFI) (hPDE5 mutants [1]; DMSO (no ligand), TDF series)	GFP FACS analysis (MFI) (hPDE5 mutants [1]; DMSO (no ligand), VDF series)	GFP FACS analysis (MFI) (hPDE5 mutants [1]; SDF 1.235 μM)	GFP FACS analysis (MFI) (hPDE5 mutants [1]; TDF 1.235 μM)	MFI 10 μM VDF (hPDE5 mutants [2]; experiment 1)	MFI DMSO (hPDE5 mutants [2]; experiment 1)	GFP FACS analysis (MFI) (hPDE5 mutants [2]; SDF 3.704 μM, experiment 1)	GFP FACS analysis (MFI) (hPDE5 mutants [2]; SDF 11.111 μM, experiment 1)	GFP FACS analysis (MFI) (hPDE5 mutants [2]; SDF 33.333 μM, experiment 1)	GFP FACS analysis (MFI) (hPDE5 mutants [2]; SDF 100 μM, experiment 1)	GFP FACS analysis (MFI) (hPDE5 mutants [2]; TDF 3.704 μM, experiment 1)	GFP FACS analysis (MFI) (hPDE5 mutants [2]; TDF 11.111 μM, experiment 1)	GFP FACS analysis (MFI) (hPDE5 mutants [2]; TDF 33.333 μM, experiment 1)	GFP FACS analysis (MFI) (hPDE5 mutants [2]; TDF 100 μM, experiment 1)	GFP FACS analysis (MFI) (hPDE5 mutants [2]; VDF 1.235 μM, experiment 1)	GFP FACS analysis (MFI) (hPDE5 mutants [2]; VDF 3.704 μM, experiment 1)	GFP FACS analysis (MFI) (hPDE5 mutants [2]; VDF 11.111 μM, experiment 1)	GFP FACS analysis (MFI) (hPDE5 mutants [2]; VDF 33.333 μM, experiment 1)	GFP FACS analysis (MFI) (hPDE5 mutants [2]; VDF 100 μM, experiment 1)	also measured
LibC000005: hPDE5 (Amino acid 535-860 of WT, I556S, E796D), DD generated by random mutagenesis	335	366	376	479	418	2081	271	518	577	734	1136	453	551	711	814	1044	1968	3066	3892	4240	Percent stabilization effect (hPDE5 mutants [1]; SDF 1.235 μM): 18.0%; Percent stabilization effect (hPDE5 mutants [1]; SDF 3.704 μM): 22.8%; Percent stabilization effect (hPDE5 mutants [1]; SDF 11.111 μM): 30.2%; Percent stabilization effect (hPDE5 mutants [1]; SDF 33.333 μM): 49.8%; Percent stabilization effect (hPDE5 mutants [1]; SDF 100 μM (set as 100%)): 100.0%; Percent stabilization effect (hPDE5 mutants [1]; TDF 1.235 μM): 11.6%; Percent stabilization effect (hPDE5 mutants [1]; TDF 3.704 μM): 19.4%; Percent stabilization effect (hPDE5 mutants [1]; TDF 11.111 μM): 41.3%; Percent stabilization effect (hPDE5 mutants [1]; TDF 33.333 μM): 77.0%; Percent stabilization effect (hPDE5 mutants [1]; TDF 100 μM (set as 100%)): 100.0%; Percent stabilization effect (hPDE5 mutants [1]; VDF 1.235 μM): 17.3%; Percent stabilization effect (hPDE5 mutants [1]; VDF 3.704 μM): 41.2%; Percent stabilization effect (hPDE5 mutants [1]; VDF 11.111 μM): 69.6%; Percent stabilization effect (hPDE5 mutants [1]; VDF 33.333 μM): 91.0%; Percent stabilization effect (hPDE5 mutants [1]; VDF 100 μM (set as 100%)): 100.0%; Fluorescence intensity Sildenafil (hPDE5 mutants [2]): 1136; Fluorescence intensity Tadalafil (hPDE5 mutants [2]): 814; Fluorescence intensity Vardenafil (hPDE5 mutants [2]): 4240; Fluorescence intensity DMSO (hPDE5 mutants [2]): 359
LibC000013: hPDE5 (Amino acid 535-860 of WT, L781P), DD generated by random mutagenesis	943	847	854	2076	3688	723	498	3467	5539	7404	8260	6275	8085	8353	7614	6773	7330	7393	7308	7207	Stabilization ratio (hPDE5 mutants [2]; GFP intensity 10 μM vardenafil vs DMSO, experiment 1): 1.5; Destabilizing mutation co-efficient (hPDE5 mutants [2]; GFP intensity mutant vs PDE5 wildtype construct in absence of ligand, experiment 1): 0.09
LibC000015: hPDE5 (Amino acid 535-860 of WT, T571S, V585M, T723S), DD generated by random mutagenesis	301	306	373	320	311	1951	174	331	357	432	630	326	374	463	518	756	1383	2315	3166	3069	Percent stabilization effect (hPDE5 mutants [1]; SDF 1.235 μM): 5.8%; Percent stabilization effect (hPDE5 mutants [1]; SDF 3.704 μM): 9.1%; Percent stabilization effect (hPDE5 mutants [1]; SDF 11.111 μM): 17.0%; Percent stabilization effect (hPDE5 mutants [1]; SDF 33.333 μM): 39.8%; Percent stabilization effect (hPDE5 mutants [1]; SDF 100 μM (set as 100%)): 100.0%; Percent stabilization effect (hPDE5 mutants [1]; TDF 1.235 μM): 2.4%; Percent stabilization effect (hPDE5 mutants [1]; TDF 3.704 μM): 9.4%; Percent stabilization effect (hPDE5 mutants [1]; TDF 11.111 μM): 32.1%; Percent stabilization effect (hPDE5 mutants [1]; TDF 33.333 μM): 74.1%; Percent stabilization effect (hPDE5 mutants [1]; TDF 100 μM (set as 100%)): 100.0%; Percent stabilization effect (hPDE5 mutants [1]; VDF 1.235 μM): 14.2%; Percent stabilization effect (hPDE5 mutants [1]; VDF 3.704 μM): 37.5%; Percent stabilization effect (hPDE5 mutants [1]; VDF 11.111 μM): 72.0%; Percent stabilization effect (hPDE5 mutants [1]; VDF 33.333 μM): 103.6%; Percent stabilization effect (hPDE5 mutants [1]; VDF 100 μM (set as 100%)): 100.0%
LibC000020: hPDE5 (Amino acid 535-860 of WT, A722V, F755L, M760I), DD generated by random mutagenesis	338	243	238	371	337	1459	332	376	373	407	513	342	371	440	509	399	733	1395	2144	2499	Percent stabilization effect (hPDE5 mutants [1]; SDF 1.235 μM): 18.9%; Percent stabilization effect (hPDE5 mutants [1]; SDF 3.704 μM): 21.7%; Percent stabilization effect (hPDE5 mutants [1]; SDF 11.111 μM): 20.0%; Percent stabilization effect (hPDE5 mutants [1]; SDF 33.333 μM): 39.4%; Percent stabilization effect (hPDE5 mutants [1]; SDF 100 μM (set as 100%)): 100.0%; Percent stabilization effect (hPDE5 mutants [1]; TDF 1.235 μM): 35.3%; Percent stabilization effect (hPDE5 mutants [1]; TDF 3.704 μM): 37.2%; Percent stabilization effect (hPDE5 mutants [1]; TDF 11.111 μM): 48.1%; Percent stabilization effect (hPDE5 mutants [1]; TDF 33.333 μM): 74.1%; Percent stabilization effect (hPDE5 mutants [1]; TDF 100 μM (set as 100%)): 100.0%; Percent stabilization effect (hPDE5 mutants [1]; VDF 1.235 μM): 7.1%; Percent stabilization effect (hPDE5 mutants [1]; VDF 3.704 μM): 21.9%; Percent stabilization effect (hPDE5 mutants [1]; VDF 11.111 μM): 51.2%; Percent stabilization effect (hPDE5 mutants [1]; VDF 33.333 μM): 84.3%; Percent stabilization effect (hPDE5 mutants [1]; VDF 100 μM (set as 100%)): 100.0%; Fluorescence intensity Sildenafil (hPDE5 mutants [2]): 513; Fluorescence intensity Tadalafil (hPDE5 mutants [2]): 509; Fluorescence intensity Vardenafil (hPDE5 mutants [2]): 2499; Fluorescence intensity DMSO (hPDE5 mutants [2]): 273
